Assays:
[1] = molecular target: T1, CD24 on tumor cells (MCF7, SKOV3, HT55, huCD24-MDA-MB-231, CD24-SKOV3) (human, UniProt P25063 27-59); test: flow cytometry on SKOV3 cells (MFI); table under the graph prints no unit, unit from the x axis label
T1 construct: whole, on cells; The cell line of each result is named under assay
T1 chain (looked up): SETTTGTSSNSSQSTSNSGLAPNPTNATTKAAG
Procedure: (§1) The commercial antibody SN3 (ABCOM; ab134375) and IgG1 isotype control were used as control. MCF7, SKOV3, HT55 or huCD24-MDA-MB-231 cells were taken and transferred to a centrifuge tube, and centrifuged at 1000 rpm for 5 min. 100 μL of MCF7, SKOV3, HT55, or huCD24-MDA-MB-231 cells were spread in a 96 U plate, respectively, and washed twice with PBS. 100 μL of the fusion supernatant was added, and diluted for 8 gradients. Cells were incubated at 4° C. for 60 minutes, and then washed twice with excess FACS buffer. Cells were resuspended in 100 μL of FACS buffer and sheep anti-mouse secondary antibody-FITC (ABCOM; ab6785) was added to the samples, incubated for 30 minutes and washed twice with excess FACS buffer. Cells were fixed in fixation buffer and subsequently analyzed by flow cytometry.
(§2) The binding activity of the chimeric antibodies CH-01 and CH-02 and tumor cells was detected according to the method of Example 6.

[2] = molecular target: T1, CD24 on tumor cells (MCF7, SKOV3, HT55, …); test: flow cytometry on MCF7 cells (MFI); table under the graph prints no unit, unit from the x axis label
Procedure: as §1, §2

[3] = molecular target: T2, human CD24 protein (ACRO) (human, UniProt P25063 27-59); test: BLI (ForteBio Octet RED96e), antibody immobilised, human CD24 protein as analyte
T2 construct: also called analyte human CD24 protein
T2 chain (looked up): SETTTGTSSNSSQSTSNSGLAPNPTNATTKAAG
Procedure: ForteBio […] (BLI) was used to detect the affinity of humanized antibodies. The sample to be tested (solidified) was diluted to 20 μg/mL with 0.02% PBST (buffer). The analyte human CD24 protein (ACRO) was diluted to 100 nM with 0.02% PBST (buffer) as the initial concentration, and then diluted by double gradient for 7 gradients starting from this concentration, and a negative control (buffer) was performed.
The molecular interaction analysis instrument (ForteBio; Octet RED96e) was operated, and 200 μL of curing buffer (0.02% PBST) was added to a pre-wetted plate, and the sensor was pre-wetted for 5-10 min. Diluted samples and other reagents for assay were added into wells in the sample plate corresponding to the pre-wetted sensor.

B1: chimeric antibody CH-01 (antibody, human IgG1, kappa, V domains shown)
VH: QIQLVQSGPELKKPGETVKISCKASGYIFTDYAIHWVKQAPGKGLKWMGFINTATGEPTYADDFKGRFAFSLETSASTAYLQVNSLKNEDTATYFCTSGVHWGQGTTLTVSS
VL: QIVLTQSPAIMSASLGEEITLTCSASSSVSSMHWYQQKSGTSPKLLIYSTSNLASGVPSRFSGSGSGTFYSLTISSVESEDAADYYCHHWTSYMYTFGGGTKLEIKR
notes: ms-01 variable regions on a human IgG framework, expressed in CHO cells
EC50 [1]: 1.2 µg/mL | EC50 [2]: 1.69 µg/mL | Kd [3]: 8.08 nM
